According to patent publication US20140178854A1:

What was measured:
[1] = molecular target: gp70 env protein of amphotropic MLV (4070A envelope), on purified viral particles (amphotropic murine leukemia virus (4070A envelope)); test: ELISA on plate-bound MLV, dilution factor 10, Exp073-DTV Plate 2
[2] = molecular target: gp70 env protein of amphotropic MLV (4070A envelope), on purified viral particles (amphotropic murine leukemia virus (4070A envelope)); test: ELISA on plate-bound MLV, dilution factor 10, Exp121-Ana Plate 1
[3] = molecular target: gp70 env protein of amphotropic MLV (4070A envelope), on purified viral particles (amphotropic murine leukemia virus (4070A envelope)); test: ELISA on plate-bound MLV, dilution factor 10, Exp121-Ana Plate 2
[4] = molecular target: gp70 env protein of amphotropic MLV (4070A envelope), on purified viral particles (amphotropic murine leukemia virus (4070A envelope)); test: ELISA on plate-bound MLV, dilution factor 10, Exp122-Ana Plate 2
[5] = molecular target: gp70 env protein of amphotropic MLV (4070A envelope), on purified viral particles (amphotropic murine leukemia virus (4070A envelope)); test: ELISA on plate-bound MLV, dilution factor 10, Exp125-Ana Plate 2
[6] = molecular target: gp70 env protein of amphotropic MLV (4070A envelope), on purified viral particles (amphotropic murine leukemia virus (4070A envelope)); test: ELISA on plate-bound MLV, dilution factor 50, Exp072-DTV Plate 1
[7] = molecular target: gp70 env protein of amphotropic MLV (4070A envelope), on purified viral particles (amphotropic murine leukemia virus (4070A envelope)); test: ELISA on plate-bound MLV, dilution factor 50, Exp125-Ana Plate 1
[8] = molecular target: gp70 env protein of amphotropic MLV (4070A envelope), on purified viral particles (amphotropic murine leukemia virus (4070A envelope)); test: ELISA on plate-bound MLV, dilution factor 50, Exp125-Ana Plate 2
[9] = molecular target: gp70 env protein of amphotropic MLV (4070A envelope), on purified viral particles (amphotropic murine leukemia virus (4070A envelope)); test: ELISA on plate-bound MLV, dilution factor 250, Exp074-DTV Plate 1
[10] = molecular target: gp70 env protein of amphotropic MLV (4070A envelope), on purified viral particles (amphotropic murine leukemia virus (4070A envelope)); test: ELISA on plate-bound MLV, dilution factor 1250, Exp072-DTV Plate 1
[11] = molecular target: gp70 env protein of amphotropic MLV (4070A envelope), on purified viral particles (amphotropic murine leukemia virus (4070A envelope)); test: ELISA on plate-bound MLV, dilution factor 1250, Exp072-DTV Plate 2
[12] = molecular target: gp70 env protein of amphotropic MLV (4070A envelope), on purified viral particles (amphotropic murine leukemia virus (4070A envelope)); test: ELISA on plate-bound MLV, dilution factor 1250, Exp121-Ana Plate 1
[13] = molecular target: gp70 env protein of amphotropic MLV (4070A envelope), on purified viral particles (amphotropic murine leukemia virus (4070A envelope)); test: ELISA on plate-bound MLV, dilution factor 6250, Exp073-DTV Plate 1
[14] = molecular target: gp70 env protein of amphotropic MLV (4070A envelope), on purified viral particles (amphotropic murine leukemia virus (4070A envelope)); test: ELISA on plate-bound MLV, dilution factor 6250, Exp074-DTV Plate 1
[15] = molecular target: gp70 env protein of amphotropic MLV (4070A envelope), on purified viral particles (amphotropic murine leukemia virus (4070A envelope)); test: ELISA on plate-bound MLV, dilution factor 6250, Exp121-Ana Plate 2
[16] = molecular target: gp70 env protein of amphotropic MLV (4070A envelope), on purified viral particles (amphotropic murine leukemia virus (4070A envelope)); test: ELISA on plate-bound MLV, dilution factor 6250, Exp122-Ana Plate 1
[17] = molecular target: gp70 env protein of amphotropic MLV (4070A envelope), on purified viral particles (amphotropic murine leukemia virus (4070A envelope)); test: ELISA on plate-bound MLV, dilution factor 6250, Exp125-Ana Plate 1
[18] = molecular target: gp70 env protein of amphotropic MLV (4070A envelope), on purified viral particles (amphotropic murine leukemia virus (4070A envelope)); test: ELISA on plate-bound MLV, dilution factor 31250, Exp072-DTV Plate 2
[19] = molecular target: gp70 env protein of amphotropic MLV (4070A envelope), on purified viral particles (amphotropic murine leukemia virus (4070A envelope)); test: ELISA on plate-bound MLV, dilution factor 31250, Exp122-Ana Plate 1
[20] = molecular target: gp70 env protein of amphotropic MLV (4070A envelope), on purified viral particles (amphotropic murine leukemia virus (4070A envelope)); test: ELISA on plate-bound MLV, dilution factor 156250, Exp122-Ana Plate 2
[21] = molecular target: gp70 env protein of amphotropic MLV (4070A envelope), on purified viral particles (amphotropic murine leukemia virus (4070A envelope)); test: ELISA on plate-bound MLV, dilution factor 781250, Exp072-DTV Plate 1
[22] = molecular target: gp70 env protein of amphotropic MLV (4070A envelope), on purified viral particles (amphotropic murine leukemia virus (4070A envelope)); test: ELISA on plate-bound MLV, dilution factor 781250, Exp072-DTV Plate 2
[23] = molecular target: gp70 env protein of amphotropic MLV (4070A envelope), on purified viral particles (amphotropic murine leukemia virus (4070A envelope)); test: ELISA on plate-bound MLV, dilution factor 781250, Exp073-DTV Plate 1
[24] = molecular target: gp70 env protein of amphotropic MLV (4070A envelope), on purified viral particles (amphotropic murine leukemia virus (4070A envelope)); test: ELISA on plate-bound MLV, dilution factor 781250, Exp074-DTV Plate 2
[25] = molecular target: gp70 env protein of amphotropic MLV (4070A envelope), on purified viral particles (amphotropic murine leukemia virus (4070A envelope)); test: ELISA on plate-bound MLV, dilution factor 781250, Exp121-Ana Plate 2
[26] = molecular target: gp70 env protein of amphotropic MLV (4070A envelope), on purified viral particles (amphotropic murine leukemia virus (4070A envelope)); test: ELISA on plate-bound MLV, dilution factor 781250, Exp122-Ana Plate 2

gp70 env protein of amphotropic MLV (4070A envelope), on purified viral particles (amphotropic murine leukemia virus (4070A envelope)), sequence (P21995 whole entry): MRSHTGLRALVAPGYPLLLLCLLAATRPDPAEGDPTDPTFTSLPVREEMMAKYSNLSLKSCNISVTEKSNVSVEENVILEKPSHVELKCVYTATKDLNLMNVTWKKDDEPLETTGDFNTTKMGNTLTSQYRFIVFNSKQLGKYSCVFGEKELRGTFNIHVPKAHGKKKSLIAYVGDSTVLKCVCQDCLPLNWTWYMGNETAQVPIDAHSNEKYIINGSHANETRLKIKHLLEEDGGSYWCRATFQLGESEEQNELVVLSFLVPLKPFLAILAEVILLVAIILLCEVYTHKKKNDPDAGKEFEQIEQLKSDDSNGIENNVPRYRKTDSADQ

Substance: 83A25 monoclonal antibody (rat IgG2a, anti-gp70)
- Mean OD [1]: 2.48 OD
- Mean OD [2]: 2.65 OD
- Mean OD [3]: 2.65 OD
- Mean OD [4]: 2.18 OD
- Mean OD [5]: 2.27 OD
- Mean OD [6]: 1.75 OD
- Mean OD [7]: 1.99 OD
- Mean OD [8]: 1.96 OD
- Mean OD [9]: 1.92 OD
- Mean OD [10]: 1.3 OD
- Mean OD [11]: 1.31 OD
- Mean OD [12]: 1.93 OD
- Mean OD [13]: 0.803 OD
- Mean OD [14]: 0.636 OD
- Mean OD [15]: 0.758 OD
- Mean OD [16]: 0.64 OD
- Mean OD [17]: 0.653 OD
- Mean OD [18]: 0.21 OD
- Mean OD [19]: 0.289 OD
- Mean OD [20]: 0.174 OD
- Mean OD [21]: 0.087 OD
- Mean OD [22]: 0.104 OD
- Mean OD [23]: 0.107 OD
- Mean OD [24]: 0.107 OD
- Mean OD [25]: 0.131 OD
- Mean OD [26]: 0.141 OD
